± gives the uncertainty stated by the source.
Assay: self-splicing fitness, log relative to wild type (ln ratio); higher = more splicing; Tetrahymena group I intron in knt gene, E. coli kanamycin selection, DiMSum; sequences stand for … in CUCUCU…GGAGGGAAAAGUUAUCAGGCAUGCACCUGGUAGCUAGUCUUUAAACCAAUAGAUUGCAUCGGUUUAAAAGGCAAGACCGUCAAAUUGCGGGAAAGGGGUCAACAGCCGUUCAGUACCAAGUCUCAGGGGAAACUUUGAGAUGGCCUUGCAAAGGGUAUGGUAAUAAGCUGACGGACAUGGUCCUAACCACGCAGCCAAGUCCUAAGUCAACAGAUCUUCUGUUGAUAUGGAUGCAGUUCACAGACUAAAUGUCGGUCGGGGAAGAUGUAUUCUUCUCAUAAGAUAUAGUCGGACCUCUCCUUAAUGGGAGCUAGCGGAUGAAGUGAUGCAACACUGGAGCCGCUGGGAACUAAUUUGUAUGCGAAAGUAUAUUGAUUAGUUUUGGAGUACUCGUGGUCG
Outline: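 Fitness was computed with DiMSum as the error-weighted combination of replicate fold changes, kanamycin versus none, each normalised to wild type. The library randomised all eight intron nucleotides of the P1ex region, with the intron placed in the knt kanamycin-resistance gene on pET-22b(+) in E. coli BL21(DE3). Six replicate transformations were grown overnight at 37°C or 30°C on LB agar with or without 25 μg/mL kanamycin, plus 100 μg/mL carbenicillin, 50 μM IPTG and 0.2% rhamnose. Pooled colonies were amplicon-sequenced on an Illumina HiSeq 2500.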

| Sequence | self-splicing fitness (ln) (30 °C) | self-splicing fitness (ln) (37 °C) |
| --- | --- | --- |
| UUGCAGCAAUAUUACGAACG | -0.781 ± 0.19 | -0.482 ± 0.2 |
| GUACAGCAAUAUUACGCGUC | -3.1 ± 0.21 | -0.709 ± 0.14 |
| AUGUAGCAAUAUUACGGCGC | -0.704 ± 0.094 | -0.408 ± 0.12 |
| AGUGAGCAAUAUUACGAAAU | – | -2.07 ± 0.39 |
| UCAUAGCAAUAUUACGUGAA | -2.56 ± 0.091 | -1.61 ± 0.1 |
| UCUAAGCAAUAUUACGCCCC | – | -1.6 ± 0.44 |
| GGAGAGCAAUAUUACGCGCG | -2.27 ± 0.11 | -1.26 ± 0.13 |
| ACUUAGCAAUAUUACGUUAA | -4.2 ± 0.46 | -2.02 ± 0.2 |
| CAAAAGCAAUAUUACGUGUC | -3.51 ± 0.14 | -1.41 ± 0.12 |
| GGCUAGCAAUAUUACGCAGC | – | -2.29 ± 0.39 |
| GAUUAGCAAUAUUACGGGAG | -2.81 ± 0.24 | -2.8 ± 0.38 |
| AAUAAGCAAUAUUACGCCUC | -2.43 ± 0.35 | -1.19 ± 0.31 |
| CUUCAGCAAUAUUACGCCGA | – | -2.47 ± 0.31 |
| AGGUAGCAAUAUUACGGUUG | -3.675 ± 0.026 | -2.4 ± 0.039 |
| CCCCAGCAAUAUUACGGAGG | -4.83 ± 0.26 | -2.63 ± 0.16 |
| AGAAAGCAAUAUUACGCUCC | -1.89 ± 0.23 | -1.19 ± 0.24 |
| GCUGAGCAAUAUUACGCUCA | – | -2.75 ± 0.48 |
| AAUAAGCAAUAUUACGAUGG | -2.53 ± 0.14 | -0.861 ± 0.12 |
| GUGUAGCAAUAUUACGAUAC | -2.23 ± 0.25 | -1.01 ± 0.25 |
| AAGUAGCAAUAUUACGUCAU | -2.29 ± 0.13 | -0.997 ± 0.12 |
| AGACAGCAAUAUUACGACAU | -0.107 ± 0.011 | -0.0048 ± 0.032 |

| Sequence | self-splicing fitness (ln) (30 °C) | self-splicing fitness (ln) (37 °C) |
| --- | --- | --- |
| ACCCAGCAAUAUUACGAGGC | -2.72 ± 0.1 | -0.981 ± 0.089 |
| GGCAAGCAAUAUUACGAUUA | -0.726 ± 0.1 | -0.234 ± 0.093 |
| CAUGAGCAAUAUUACGCAAU | -3.1 ± 0.38 | – |
| UACAAGCAAUAUUACGCGGC | -3.59 ± 0.24 | -2.91 ± 0.31 |
| CGGAAGCAAUAUUACGAUGA | -1.91 ± 0.11 | -0.379 ± 0.096 |
| CGGAAGCAAUAUUACGGAAG | – | -1.5 ± 0.33 |
| GAGUAGCAAUAUUACGUUUC | -2.82 ± 0.18 | -2.54 ± 0.27 |
| CAUUAGCAAUAUUACGUUGU | -3.95 ± 0.23 | -2.75 ± 0.22 |
| ACAAAGCAAUAUUACGAGUC | -4.66 ± 0.25 | -2.95 ± 0.23 |
| CGUCAGCAAUAUUACGCAGC | -3.34 ± 0.2 | -2.26 ± 0.19 |
| GUGAAGCAAUAUUACGCAUU | -2.66 ± 0.27 | -1.05 ± 0.15 |
| AAGAAGCAAUAUUACGUAGC | -3.08 ± 0.25 | -2.32 ± 0.31 |
| AUUCAGCAAUAUUACGCGGG | -2.38 ± 0.15 | -0.332 ± 0.11 |
| GUAAAGCAAUAUUACGUCCG | -0.907 ± 0.088 | -0.395 ± 0.14 |
| CUGCAGCAAUAUUACGUCAA | -3.08 ± 0.17 | -1.47 ± 0.12 |
| UUGGAGCAAUAUUACGUUUU | -1.64 ± 0.19 | -2.55 ± 0.18 |
| UUUCAGCAAUAUUACGGACC | -1.2 ± 0.4 | – |
| UAAUAGCAAUAUUACGACUA | -0.456 ± 0.11 | -0.0379 ± 0.13 |
| UACAAGCAAUAUUACGGGUG | -0.523 ± 0.04 | -0.55 ± 0.054 |
| CCAAAGCAAUAUUACGUAAA | -3.24 ± 0.11 | -2.07 ± 0.14 |
